Test results reported in patent publication US20020164732A1.

Legend:
[1] = molecular target: HsdR subunit encoded by the chromosome of the IL1403 strain (L. lactis ssp lactis (strain IL1403)); experiment: cell-based or functional assay
[2] = molecular target: HsdM subunit encoded by the chromosome of the IL1403 strain (L. lactis ssp lactis (strain IL1403)); experiment: cell-based or functional assay
HsdM subunit encoded by the chromosome of the IL1403 strain (L. lactis ssp lactis (strain IL1403)), sequence (chain, as listed by the source limits assumed): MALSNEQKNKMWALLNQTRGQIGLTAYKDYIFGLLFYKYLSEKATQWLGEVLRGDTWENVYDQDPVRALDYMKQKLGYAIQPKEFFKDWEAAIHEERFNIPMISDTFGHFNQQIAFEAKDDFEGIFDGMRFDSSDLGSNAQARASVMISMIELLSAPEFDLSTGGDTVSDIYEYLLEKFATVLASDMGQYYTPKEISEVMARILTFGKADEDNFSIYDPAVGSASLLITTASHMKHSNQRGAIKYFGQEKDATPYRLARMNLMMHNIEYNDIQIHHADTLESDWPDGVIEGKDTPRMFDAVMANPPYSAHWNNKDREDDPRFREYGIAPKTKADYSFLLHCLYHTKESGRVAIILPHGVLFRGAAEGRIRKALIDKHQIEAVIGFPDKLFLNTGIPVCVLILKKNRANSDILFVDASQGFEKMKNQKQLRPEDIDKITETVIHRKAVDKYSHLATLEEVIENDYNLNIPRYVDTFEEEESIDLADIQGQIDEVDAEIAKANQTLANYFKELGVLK

HsdR subunit encoded by the chromosome of the IL1403 strain (L. lactis ssp lactis (strain IL1403)), sequence (chain, as listed by the source limits assumed): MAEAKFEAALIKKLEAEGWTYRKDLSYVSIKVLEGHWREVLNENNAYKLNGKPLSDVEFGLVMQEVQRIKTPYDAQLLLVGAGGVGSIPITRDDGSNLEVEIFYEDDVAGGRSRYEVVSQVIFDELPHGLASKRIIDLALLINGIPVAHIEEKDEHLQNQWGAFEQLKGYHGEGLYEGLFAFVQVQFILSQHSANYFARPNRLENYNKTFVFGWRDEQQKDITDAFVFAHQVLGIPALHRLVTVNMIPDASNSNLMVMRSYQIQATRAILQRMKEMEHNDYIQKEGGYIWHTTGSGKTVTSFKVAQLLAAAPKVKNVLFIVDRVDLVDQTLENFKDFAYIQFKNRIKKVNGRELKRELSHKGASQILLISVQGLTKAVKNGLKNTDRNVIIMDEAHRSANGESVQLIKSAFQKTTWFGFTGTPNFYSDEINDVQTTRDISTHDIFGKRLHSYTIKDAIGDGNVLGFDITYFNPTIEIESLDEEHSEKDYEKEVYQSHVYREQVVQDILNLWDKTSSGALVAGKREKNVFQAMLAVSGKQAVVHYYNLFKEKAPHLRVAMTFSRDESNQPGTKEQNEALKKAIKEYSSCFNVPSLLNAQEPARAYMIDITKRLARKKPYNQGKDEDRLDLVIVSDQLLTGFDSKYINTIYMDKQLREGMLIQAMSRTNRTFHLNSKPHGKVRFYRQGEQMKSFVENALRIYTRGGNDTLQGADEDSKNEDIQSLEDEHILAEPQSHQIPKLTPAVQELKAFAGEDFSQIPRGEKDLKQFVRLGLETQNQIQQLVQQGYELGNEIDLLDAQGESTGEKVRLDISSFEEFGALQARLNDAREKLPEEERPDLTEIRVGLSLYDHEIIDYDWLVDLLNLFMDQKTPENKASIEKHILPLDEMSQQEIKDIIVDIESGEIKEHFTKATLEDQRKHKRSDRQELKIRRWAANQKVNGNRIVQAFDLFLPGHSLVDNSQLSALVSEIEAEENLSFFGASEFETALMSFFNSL

EOP (efficacy of propagation) of bIL67 phage on IL1403 transformed with pIL7, against IL1403 without plasmids [1]	EOP (efficacy of propagation) of bIL67 phage on IL1403 transformed with pIL7, against IL1403 without plasmids [2]	EOP (efficacy of propagation) of bIL67 phage on IL1403 transformed with pIL261, against IL1403 without plasmids [1]	EOP (efficacy of propagation) of bIL67 phage on IL1403 transformed with pIL261, against IL1403 without plasmids [2]	Substance
0.006	0.006			HsdS subunit encoded by the pIL7 plasmid
		6e-07	6e-07	HsdS subunit encoded by the pIL261 plasmid (orf2 of the 3.7 kb EcoRI insert from pIL103)
